Assay [1] addresses human collagen type I (human) (UniProt P02452). Put plainly: dried collagen assay, 5 uM peptide.
The target of assay [2] is rat collagen type I (rat) (UniProt P02454). Kind of assay: dried collagen assay, 5 uM peptide.

In patent publication US20120114557A1 one finds % Collagen Binding, Dried Human, % Collagen Binding, Dried Rat and Dried Human Collagen Binding data, which are given here for 27 molecules.

Bridge positions count the residues as written; N and C are the ends. Square brackets hold non-standard residues; d marks the D form. Ends that are not written are not given here. NMeA = CN[C@@H](C)C(=O)O; Sar = CNCC(=O)O

human collagen type I (human), sequence (P02452 162-1218 limits assumed, chain 1 of 2): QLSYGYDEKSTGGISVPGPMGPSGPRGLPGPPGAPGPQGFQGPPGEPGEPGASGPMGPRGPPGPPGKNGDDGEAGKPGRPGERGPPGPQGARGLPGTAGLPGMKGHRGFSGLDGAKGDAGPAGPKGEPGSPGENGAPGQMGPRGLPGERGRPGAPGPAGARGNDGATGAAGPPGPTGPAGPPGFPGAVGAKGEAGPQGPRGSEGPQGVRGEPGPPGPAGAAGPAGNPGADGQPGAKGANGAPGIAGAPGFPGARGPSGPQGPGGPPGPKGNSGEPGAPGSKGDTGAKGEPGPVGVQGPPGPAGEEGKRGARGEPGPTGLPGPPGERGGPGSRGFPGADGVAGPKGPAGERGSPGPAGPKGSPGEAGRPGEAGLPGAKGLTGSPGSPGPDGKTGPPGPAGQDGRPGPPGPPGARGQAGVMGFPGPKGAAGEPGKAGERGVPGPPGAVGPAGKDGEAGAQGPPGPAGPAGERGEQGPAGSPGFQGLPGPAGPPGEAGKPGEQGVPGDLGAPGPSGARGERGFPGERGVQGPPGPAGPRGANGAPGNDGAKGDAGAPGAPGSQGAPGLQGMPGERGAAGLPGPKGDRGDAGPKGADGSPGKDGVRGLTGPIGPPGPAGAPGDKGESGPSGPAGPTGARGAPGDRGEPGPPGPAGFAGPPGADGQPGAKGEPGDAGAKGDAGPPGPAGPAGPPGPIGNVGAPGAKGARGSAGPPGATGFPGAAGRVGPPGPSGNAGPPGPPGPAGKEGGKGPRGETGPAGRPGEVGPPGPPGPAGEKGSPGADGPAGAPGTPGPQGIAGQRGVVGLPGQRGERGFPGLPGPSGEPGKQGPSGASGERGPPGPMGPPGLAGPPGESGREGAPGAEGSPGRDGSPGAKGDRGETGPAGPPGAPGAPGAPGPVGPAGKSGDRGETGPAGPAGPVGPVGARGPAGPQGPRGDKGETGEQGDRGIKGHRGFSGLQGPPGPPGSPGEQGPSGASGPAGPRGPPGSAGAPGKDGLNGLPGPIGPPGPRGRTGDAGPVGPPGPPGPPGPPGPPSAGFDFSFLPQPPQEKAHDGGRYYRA
human collagen type I (human), sequence (P08123 80-1119 limits assumed, chain 2 of 2, further chain): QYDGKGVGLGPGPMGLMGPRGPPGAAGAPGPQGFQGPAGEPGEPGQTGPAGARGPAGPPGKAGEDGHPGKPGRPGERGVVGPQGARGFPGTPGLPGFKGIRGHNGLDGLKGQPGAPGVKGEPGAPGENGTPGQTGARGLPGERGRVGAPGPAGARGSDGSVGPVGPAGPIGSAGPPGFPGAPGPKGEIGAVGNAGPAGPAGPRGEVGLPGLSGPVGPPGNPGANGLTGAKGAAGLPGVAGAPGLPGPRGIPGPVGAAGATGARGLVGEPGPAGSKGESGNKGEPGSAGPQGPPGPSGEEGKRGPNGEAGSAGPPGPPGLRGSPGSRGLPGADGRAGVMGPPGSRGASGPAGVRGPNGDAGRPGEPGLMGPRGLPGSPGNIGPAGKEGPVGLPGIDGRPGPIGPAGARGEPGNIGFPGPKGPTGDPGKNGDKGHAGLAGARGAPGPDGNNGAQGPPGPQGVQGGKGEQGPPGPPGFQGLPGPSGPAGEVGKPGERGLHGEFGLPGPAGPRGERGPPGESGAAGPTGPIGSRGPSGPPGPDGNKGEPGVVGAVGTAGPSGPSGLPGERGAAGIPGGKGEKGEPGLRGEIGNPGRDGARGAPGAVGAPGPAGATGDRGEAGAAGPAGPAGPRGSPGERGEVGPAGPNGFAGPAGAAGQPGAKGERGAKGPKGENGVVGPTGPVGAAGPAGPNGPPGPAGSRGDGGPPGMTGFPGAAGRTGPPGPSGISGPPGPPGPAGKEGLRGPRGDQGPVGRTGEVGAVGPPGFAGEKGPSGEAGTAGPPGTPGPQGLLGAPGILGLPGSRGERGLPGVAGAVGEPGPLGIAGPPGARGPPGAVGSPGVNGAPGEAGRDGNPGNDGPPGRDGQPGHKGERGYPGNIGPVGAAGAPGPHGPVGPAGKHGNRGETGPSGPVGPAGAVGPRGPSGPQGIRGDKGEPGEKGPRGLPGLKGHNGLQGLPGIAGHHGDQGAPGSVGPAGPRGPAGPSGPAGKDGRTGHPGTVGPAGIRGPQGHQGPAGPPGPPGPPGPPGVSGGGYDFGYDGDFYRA
rat collagen type I (rat), sequence (P02454 152-1207, chain 1 of 2): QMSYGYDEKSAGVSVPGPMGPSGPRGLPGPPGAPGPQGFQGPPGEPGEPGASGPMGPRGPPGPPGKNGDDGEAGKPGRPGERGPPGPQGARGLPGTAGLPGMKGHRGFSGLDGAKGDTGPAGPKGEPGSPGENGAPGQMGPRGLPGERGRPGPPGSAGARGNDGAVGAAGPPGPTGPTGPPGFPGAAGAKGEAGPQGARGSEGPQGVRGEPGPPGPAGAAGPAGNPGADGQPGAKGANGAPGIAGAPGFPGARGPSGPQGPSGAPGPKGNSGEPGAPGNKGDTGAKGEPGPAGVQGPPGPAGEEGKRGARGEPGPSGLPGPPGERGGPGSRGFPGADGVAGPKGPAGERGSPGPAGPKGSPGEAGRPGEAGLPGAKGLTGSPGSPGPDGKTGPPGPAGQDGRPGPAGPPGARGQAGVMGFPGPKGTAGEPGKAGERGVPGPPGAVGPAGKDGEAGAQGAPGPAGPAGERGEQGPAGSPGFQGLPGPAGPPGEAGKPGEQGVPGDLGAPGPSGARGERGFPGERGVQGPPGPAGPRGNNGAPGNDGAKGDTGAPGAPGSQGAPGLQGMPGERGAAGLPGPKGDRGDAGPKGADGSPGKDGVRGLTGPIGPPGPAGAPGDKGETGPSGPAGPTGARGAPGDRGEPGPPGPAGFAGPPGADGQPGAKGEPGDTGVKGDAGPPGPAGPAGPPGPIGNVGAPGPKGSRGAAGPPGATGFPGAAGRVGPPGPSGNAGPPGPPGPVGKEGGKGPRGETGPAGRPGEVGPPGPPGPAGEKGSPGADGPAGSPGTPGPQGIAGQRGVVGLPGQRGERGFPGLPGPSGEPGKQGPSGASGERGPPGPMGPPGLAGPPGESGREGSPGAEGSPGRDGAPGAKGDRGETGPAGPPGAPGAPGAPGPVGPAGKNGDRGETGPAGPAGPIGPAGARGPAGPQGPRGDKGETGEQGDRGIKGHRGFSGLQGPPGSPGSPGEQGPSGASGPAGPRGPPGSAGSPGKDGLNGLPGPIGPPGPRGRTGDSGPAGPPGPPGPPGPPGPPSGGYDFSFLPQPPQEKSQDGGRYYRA
rat collagen type I (rat), sequence (P02466 86-1125, chain 2 of 2, further chain): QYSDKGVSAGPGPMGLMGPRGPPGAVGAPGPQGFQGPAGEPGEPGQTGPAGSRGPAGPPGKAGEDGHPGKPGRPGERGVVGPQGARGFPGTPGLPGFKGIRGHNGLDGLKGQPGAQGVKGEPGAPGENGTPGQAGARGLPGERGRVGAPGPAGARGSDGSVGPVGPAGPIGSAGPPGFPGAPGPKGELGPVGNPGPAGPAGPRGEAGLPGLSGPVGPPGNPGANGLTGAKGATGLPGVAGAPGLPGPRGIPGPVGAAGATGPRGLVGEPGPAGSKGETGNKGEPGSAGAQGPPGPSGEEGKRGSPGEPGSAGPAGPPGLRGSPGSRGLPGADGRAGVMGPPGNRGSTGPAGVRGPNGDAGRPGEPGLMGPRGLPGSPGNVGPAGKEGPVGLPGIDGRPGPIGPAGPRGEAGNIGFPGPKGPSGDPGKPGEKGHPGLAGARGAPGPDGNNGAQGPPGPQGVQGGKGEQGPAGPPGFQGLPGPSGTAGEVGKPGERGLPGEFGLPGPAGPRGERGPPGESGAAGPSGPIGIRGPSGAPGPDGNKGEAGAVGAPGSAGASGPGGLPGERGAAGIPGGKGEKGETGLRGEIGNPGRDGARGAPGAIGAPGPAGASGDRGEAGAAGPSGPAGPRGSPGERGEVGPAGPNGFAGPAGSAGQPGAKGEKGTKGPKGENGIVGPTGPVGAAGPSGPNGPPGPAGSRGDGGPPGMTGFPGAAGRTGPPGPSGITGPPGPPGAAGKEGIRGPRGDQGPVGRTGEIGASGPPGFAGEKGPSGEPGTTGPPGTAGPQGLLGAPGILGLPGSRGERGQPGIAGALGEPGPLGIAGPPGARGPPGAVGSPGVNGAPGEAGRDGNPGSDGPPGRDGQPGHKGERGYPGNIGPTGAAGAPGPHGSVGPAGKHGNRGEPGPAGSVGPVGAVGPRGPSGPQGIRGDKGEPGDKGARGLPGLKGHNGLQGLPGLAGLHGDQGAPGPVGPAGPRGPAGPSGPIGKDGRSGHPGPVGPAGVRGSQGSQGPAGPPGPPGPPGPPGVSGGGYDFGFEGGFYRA

B1: SEQ ID NO: 104 (peptide)
peptide: YHACYQA[Sar]CWIW
modifications: disulfide 4-9 (inferred)
The molecule B1 displayed a % Collagen Binding, Dried Human in assay [1] of 12%. Also, the % Collagen Binding, Dried Rat in assay [2] was 19%.

B2: SEQ ID NO: 142 (peptide)
peptide: GQWTCSADEYTWHCNYE
modifications: disulfide 5-14 (inferred)
B2 gave a % Collagen Binding, Dried Rat in assay [2] of 6%.

B3: SEQ ID NO: 105 (peptide)
peptide: YHACYQ[NMeA]GCWIW
modifications: disulfide 4-9 (inferred)
B3 yielded a % Collagen Binding, Dried Human in assay [1] of 9%. In assay [2], this molecule registered a % Collagen Binding, Dried Rat of 23%.

B4: SEQ ID NO: 156 (peptide)
peptide: YHAC[dY]QAGCWIW
modifications: disulfide 4-9 (inferred)
In turn, B4 yielded a % Collagen Binding, Dried Human in assay [1] of 38%. In assay [2], this molecule had a % Collagen Binding, Dried Rat of 48%.

B5: SEQ ID NO: 176 (peptide)
peptide: GQWTCSGDEYTWHC[dN]YE
modifications: disulfide 5-14 (inferred); not fully specified (C-terminus)
In turn, B5 gave a % Collagen Binding, Dried Human in assay [1] of 2%. The molecule also gave a % Collagen Binding, Dried Rat in assay [2] of 2%.

B6: SEQ ID NO: 174 (peptide)
peptide: GQWTCSGDEYTW[dH]CNYE
modifications: disulfide 5-14 (inferred); not fully specified (C-terminus)
Take B6: the % Collagen Binding, Dried Human in assay [1] came out at 5%. Also, the % Collagen Binding, Dried Rat in assay [2] was determined as 0%.

B7: SEQ ID NO: 173 (peptide)
peptide: GQWTCSGDEYT[dW]HCNYE
modifications: disulfide 5-14 (inferred); not fully specified (C-terminus)
In assay [1], B7 gave a % Collagen Binding, Dried Human of 5%. In addition, in assay [2], the % Collagen Binding, Dried Rat worked out at 4%.

B8: SEQ ID NO: 165 (peptide)
peptide: GQ[dW]TCSGDEYTWHCNYE
modifications: disulfide 5-14 (inferred)
In assay [1], B8 returned a % Collagen Binding, Dried Human of 2%. Besides, the % Collagen Binding, Dried Rat in assay [2] is 4%.

B9: SEQ ID NO: 12 (peptide)
peptide: PMICHAPYVGKCNFL
modifications: disulfide 4-12 (inferred)
For B9, in assay [1], the Dried Human Collagen Binding came to 7%.

B10: SEQ ID NO: 166 (peptide)
peptide: GQW[dT]CSGDEYTWHCNYE
modifications: disulfide 5-14 (inferred)
B10: the % Collagen Binding, Dried Human in assay [1] came to 2%. This molecule also registered a % Collagen Binding, Dried Rat in assay [2] of 3%.

B11: SEQ ID NO: 170 (peptide)
peptide: GQWTCSGD[dE]YTWHCNYE
modifications: disulfide 5-14 (inferred); not fully specified (C-terminus)
In turn, B11 had a % Collagen Binding, Dried Human in assay [1] of 49%. In assay [2], this molecule had a % Collagen Binding, Dried Rat of 35%.

B12: SEQ ID NO: 171 (peptide)
peptide: GQWTCSGDE[dY]TWHCNYE
modifications: disulfide 5-14 (inferred); not fully specified (C-terminus)
In assay [1], B12 had a % Collagen Binding, Dried Human of 13%. The molecule also yielded a % Collagen Binding, Dried Rat in assay [2] of 6%.

B13: SEQ ID NO: 172 (peptide)
peptide: GQWTCSGDEY[dT]WHCNYE
modifications: disulfide 5-14 (inferred); not fully specified (C-terminus)
B13 yielded a % Collagen Binding, Dried Human in assay [1] of 9%. In assay [2], the % Collagen Binding, Dried Rat was 8%.

B14: SEQ ID NO: 153 (peptide)
peptide: Y[dH]ACYQAGCWIW
modifications: disulfide 4-9 (inferred)
In assay [1], B14 yielded a % Collagen Binding, Dried Human of 0%. For the same molecule, the % Collagen Binding, Dried Rat in assay [2] worked out at 0%.

B15: SEQ ID NO: 158 (peptide)
peptide: YHACYQ[dA]GCWIW
modifications: disulfide 4-9 (inferred)
In turn, B15 returned a % Collagen Binding, Dried Human in assay [1] of 56%. This molecule returned a % Collagen Binding, Dried Rat in assay [2] of 66%.

B16: SEQ ID NO: 168 (peptide)
peptide: GQWTC[dS]GDEYTWHCNYE
modifications: disulfide 5-14 (inferred)
Regarding B16, the % Collagen Binding, Dried Human in assay [1] stood at 3%. For the same molecule, the % Collagen Binding, Dried Rat in assay [2] came to 2%.

B17: SEQ ID NO: 162 (peptide)
peptide: YHACYQAGCWI[dW]
modifications: disulfide 4-9 (inferred)
The molecule B17 registered a % Collagen Binding, Dried Human in assay [1] of 18%. The molecule also returned a % Collagen Binding, Dried Rat in assay [2] of 14%.

B18: SEQ ID NO: 177 (peptide)
peptide: GQWTCSGDEYTWHCN[dY]E
modifications: disulfide 5-14 (inferred); not fully specified (C-terminus)
B18 gave a % Collagen Binding, Dried Human in assay [1] of 30%. Further, the % Collagen Binding, Dried Rat in assay [2] amounted to 27%.

B19: SEQ ID NO: 179 (peptide)
peptide: DWTCS[dA]DEYTWHCNYE
modifications: disulfide 4-13 (inferred); not fully specified (C-terminus); printed as D W T C S a D E Y T W H C N Y E
B19 gave a % Collagen Binding, Dried Human in assay [1] of 81%. The % Collagen Binding, Dried Rat in assay [2] stood at 75%.

B20: SEQ ID NO: 107 (peptide)
peptide: YHACYQAGCYIW
modifications: disulfide 4-9 (inferred)
B20 yielded a % Collagen Binding, Dried Rat in assay [2] of 6%.

B21: SEQ ID NO: 161 (peptide)
peptide: YHACYQAGCW[dI]W
modifications: disulfide 4-9 (inferred)
B21 showed a % Collagen Binding, Dried Human in assay [1] of 8%. Moreover, in assay [2], the % Collagen Binding, Dried Rat was 10%.

B22: SEQ ID NO: 160 (peptide)
peptide: YHACYQAGC[dW]IW
modifications: disulfide 4-9 (inferred)
On to B22, for which the % Collagen Binding, Dried Human in assay [1] came out at 20%. In assay [2], the % Collagen Binding, Dried Rat was 12%.

B23: SEQ ID NO: 169 (peptide)
peptide: GQWTCSG[dD]EYTWHCNYE
modifications: disulfide 5-14 (inferred); not fully specified (C-terminus)
B23 came in with a % Collagen Binding, Dried Human in assay [1] of 11%. The molecule further had a % Collagen Binding, Dried Rat in assay [2] of 4%.

B24: SEQ ID NO: 157 (peptide)
peptide: YHACY[dQ]AGCWIW
modifications: disulfide 4-9 (inferred)
Regarding B24, the % Collagen Binding, Dried Human in assay [1] amounted to 37%. Also, in assay [2], the % Collagen Binding, Dried Rat amounted to 35%.

B25: SEQ ID NO: 137 (peptide)
peptide: YHACYQAGCWAW
modifications: disulfide 4-9 (inferred)
The molecule B25 returned a % Collagen Binding, Dried Rat in assay [2] of 7%.

B26: SEQ ID NO: 164 (peptide)
peptide: G[dQ]WTCSGDEYTWHCNYE
modifications: disulfide 5-14 (inferred)
B26 had a % Collagen Binding, Dried Human in assay [1] of 46%. Also, the % Collagen Binding, Dried Rat in assay [2] worked out at 31%.

B27: SEQ ID NO: 154 (peptide)
peptide: YH[dA]CYQAGCWIW
modifications: disulfide 4-9 (inferred)
In assay [1], B27 yielded a % Collagen Binding, Dried Human of 24%. The % Collagen Binding, Dried Rat in assay [2] was found to be 21%.
